Laboratory results as given in patent US20110020361A1 (GOVERNMENT OF THE UNITED STATES OF AMERICA AS REPRESENTED …, published 2011).

Target: T1, recombinant human mesothelin (amino acids 296-600 of SEQ ID NO: 4) (human, UniProt Q13421 296-600)
T1 construct: Secreted from SF9 insect cells (baculovirus vector pAcGP67) and purified by nickel column and gel filtration; It was coated on ELISA plates and, biotin-labelled, used for panning; also called recombinant mesothelin; purified mesothelin
Test: ELISA, recombinant mesothelin coated on plate, anti-FLAG-HRP detection
Experimental: Antigen (mesothelin) diluted in PBS was coated on narrow-well 96-well plates at 50 ng/well overnight at 4° C. Wells were blocked with 100 μl of 4% milk/PBS (MPBS) for 1 hour at 37° C. […] Fifty μl of diluted Fab was added to duplicate wells. For competition ELISA, designated concentrations of competing IgG were included in all Fab solutions. After 2 hours of incubation at 37° C., the wells were washed with PBST (PBS+0.05% Tween 20) 4 times. […] Wells were washed again with PBST. Substrate ABTS was added (50 μl/well), and the reaction was read at A405 nm. For ELISA with IgG, a goat anti-human Fc IgG conjugated with HRP was used at 1:1000.

B1: Fab m912 (Fab, V domains shown)
VH: QVQLQESGPGLVKPSETLSLTCTVSGGSVSSGSYYWSWIRQPPGKGLEWIGYIYYSGSTNYNPSLKSRVTISVDTSKNQFSLKLSSVTAADTAVYYCAREGKNGAFDIWGQGTMVTVSS
VL: not shown
notes: Human Fab from a naive Fab phage library, expressed in E. coli HB2151; also called clone m912; mesothelin-specific antibody m912
- EC50: 20 nM
